In publication PMC9018835, “Regulated interaction of ID2 with the anaphase-promoting complex links progression through mitosis with reactivation of cell-type-specific transcription” (Nature Communications, 2022):

What was measured:
[1] = molecular target: core APC (endogenous, HeLa) (human (endogenous in HeLa)); assay: cell-based or functional assay
[2] = molecular target: T1, HA-CDH1, in vitro translated (UniProt Q9UM11 1-496); assay: pull-down; GST-ID2, with or without prior in vitro phosphorylation by CDK1-Cyclin B, incubated with APC immunopurified through FLAG-APC3 from HeLa cells and activated by in vitro translated HA-CDC20 or CDH1; western blot (Fig. 3h); settings: both partners purified
T1 construct: CDH1/FZR1, generated by PCR and cloned into pcDNA3; also called in vitro translated CDH1; source: in vitro translated
T1 sequence (Q9UM11 whole entry): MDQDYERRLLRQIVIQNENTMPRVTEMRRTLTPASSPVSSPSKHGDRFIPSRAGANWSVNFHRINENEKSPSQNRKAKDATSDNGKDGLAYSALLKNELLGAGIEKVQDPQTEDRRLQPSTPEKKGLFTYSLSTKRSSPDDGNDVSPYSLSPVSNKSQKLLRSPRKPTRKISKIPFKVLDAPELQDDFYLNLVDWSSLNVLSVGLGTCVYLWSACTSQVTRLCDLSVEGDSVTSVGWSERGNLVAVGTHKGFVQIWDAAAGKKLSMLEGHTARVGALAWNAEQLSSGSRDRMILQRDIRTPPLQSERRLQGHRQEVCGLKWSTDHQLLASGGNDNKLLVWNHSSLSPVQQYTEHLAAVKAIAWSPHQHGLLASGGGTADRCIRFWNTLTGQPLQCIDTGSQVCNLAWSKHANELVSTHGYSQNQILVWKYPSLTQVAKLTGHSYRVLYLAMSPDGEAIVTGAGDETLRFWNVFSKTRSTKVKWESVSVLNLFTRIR

| Binder | half-life of ID2-S5D in transiently transfected HeLa cells treated with cycloheximide, against ID2 wild type [1] [fold] | binding result [2] |
| --- | --- | --- |
| FLAG-ID2-S5D (natural protein, UniProt Q02363 1-134, looked up) MKAFDPVRSVRKNSLSDHSLGISRSKTPVDDPMSLLYNMNDCYSKLKELVPSIPQNKKVSKMEILQHVIDYILDLQIALDSHPTIVSLHHQRPGQNQASRTPLTTLNTDISILSLQASEFPSELMSNDSKALCG | ~5 |  |
| phospho-S5-GST-ID2 (natural protein, UniProt Q02363 1-134, looked up, phosphoserine at 5 (in vitro phosphorylation by Cyclin B-CDK1), also called CDK1 phosphorylated GST-ID2; source: E. coli BL21(DE3), GST fusion; phosphorylated in vitro by CDK1-Cyclin B) MKAFSPVRSVRKNSLSDHSLGISRSKTPVDDPMSLLYNMNDCYSKLKELVPSIPQNKKVSKMEILQHVIDYILDLQIALDSHPTIVSLHHQRPGQNQASRTPLTTLNTDISILSLQASEFPSELMSNDSKALCG |  | binds |
| GST-ID2 wild type (natural protein, UniProt Q02363 1-134, looked up, also called GST-ID2 WT; recombinant GST-ID2; source: E. coli BL21(DE3), purified GST fusion, immobilised on glutathione sepharose 4B) MKAFSPVRSVRKNSLSDHSLGISRSKTPVDDPMSLLYNMNDCYSKLKELVPSIPQNKKVSKMEILQHVIDYILDLQIALDSHPTIVSLHHQRPGQNQASRTPLTTLNTDISILSLQASEFPSELMSNDSKALCG |  | binds |
